According to article doi:10.1101/2025.07.11.664400 (bioRxiv, 2025):

B3: RecC (natural protein)
chain: MLRVYHSNRLDVLEALMEFIVERERLDDPFEPEMILVQSTGMAQWLQMTLSQKFGIAANIDFPLPASFIWDMFVRVLPEIPKESAFNKQSMSWKLMTLLPQLLEREDFTLLRHYLTDDSDKRKLFQLSSKAADLFDQYLVYRPDWLAQWETGHLVEGLGEAQAWQAPLWKALVEYTHQLGQPRWHRANLYQRFIETLESATTCPPGLPSRVFICGISALPPVYLQALQALGKHIEIHLLFTNPCRYYWGDIKDPAYLAKLLTRQRRHSFEDRELPLFRDSENAGQLFNSDGEQDVGNPLLASWGKLGRDYIYLLSDLESSQELDAFVDVTPDNLLHNIQSDILELENRAVAGVNIEEFSRSDNKRPLDPLDSSITFHVCHSPQREVEVLHDRLLAMLEEDPTLTPRDIIVMVADIDSYSPFIQAVFGSAPADRYLPYAISDRRARQSHPVLEAFISLLSLPDSRFVSEDVLALLDVPVLAARFDITEEGLRYLRQWVNESGIRWGIDDDNVRELELPATGQHTWRFGLTRMLLGYAMESAQGEWQSVLPYDESSGLIAELVGHLASLLMQLNIWRRGLAQERPLEEWLPVCRDMLNAFFLPDAETEAAMTLIEQQWQAIIAEGLGAQYGDAVPLSLLRDELAQRLDQERISQRFLAGPVNICTLMPMRSIPFKVVCLLGMNDGVYPRQLAPLGFDLMSQKPKRGDRSRRDDDRYLFLEALISAQQKLYISYIGRSIQDNSERFPSVLVQELIDYIGQSHYLPGDEALNCDESEARVKAHLTCLHTRMPFDPQNYQPGERQSYAREWLPAASQAGKAHSEFVQPLPFTLPETVPLETLQRFWAHPVRAFFQMRLQVNFRTEDSEIPDTEPFILEGLSRYQINQQLLNALVEQDDAERLFRRFRAAGDLPYGAFGEIFWETQCQEMQQLADRVIACRQPGQSMEIDLACNGVQITGWLPQVQPDGLLRWRPSLLSVAQGMQLWLEHLVYCASGGNGESRLFLRKDGEWRFPPLAAEQALHYLSQLIEGYREGMSAPLLVLPESGGAWLKTCYDAQNDAMLDDDSTLQKARTKFLQAYEGNMMVRGEGDDIWYQRLWRQLTPETMEAIVEQSQRFLLPLFRFNQS

What was measured:
RecC = biological target: B3; experiment: AUC
RecB = biological target: T1, RecB (E. coli, UniProt P08394 1-1180); experiment: AUC
T1 sequence: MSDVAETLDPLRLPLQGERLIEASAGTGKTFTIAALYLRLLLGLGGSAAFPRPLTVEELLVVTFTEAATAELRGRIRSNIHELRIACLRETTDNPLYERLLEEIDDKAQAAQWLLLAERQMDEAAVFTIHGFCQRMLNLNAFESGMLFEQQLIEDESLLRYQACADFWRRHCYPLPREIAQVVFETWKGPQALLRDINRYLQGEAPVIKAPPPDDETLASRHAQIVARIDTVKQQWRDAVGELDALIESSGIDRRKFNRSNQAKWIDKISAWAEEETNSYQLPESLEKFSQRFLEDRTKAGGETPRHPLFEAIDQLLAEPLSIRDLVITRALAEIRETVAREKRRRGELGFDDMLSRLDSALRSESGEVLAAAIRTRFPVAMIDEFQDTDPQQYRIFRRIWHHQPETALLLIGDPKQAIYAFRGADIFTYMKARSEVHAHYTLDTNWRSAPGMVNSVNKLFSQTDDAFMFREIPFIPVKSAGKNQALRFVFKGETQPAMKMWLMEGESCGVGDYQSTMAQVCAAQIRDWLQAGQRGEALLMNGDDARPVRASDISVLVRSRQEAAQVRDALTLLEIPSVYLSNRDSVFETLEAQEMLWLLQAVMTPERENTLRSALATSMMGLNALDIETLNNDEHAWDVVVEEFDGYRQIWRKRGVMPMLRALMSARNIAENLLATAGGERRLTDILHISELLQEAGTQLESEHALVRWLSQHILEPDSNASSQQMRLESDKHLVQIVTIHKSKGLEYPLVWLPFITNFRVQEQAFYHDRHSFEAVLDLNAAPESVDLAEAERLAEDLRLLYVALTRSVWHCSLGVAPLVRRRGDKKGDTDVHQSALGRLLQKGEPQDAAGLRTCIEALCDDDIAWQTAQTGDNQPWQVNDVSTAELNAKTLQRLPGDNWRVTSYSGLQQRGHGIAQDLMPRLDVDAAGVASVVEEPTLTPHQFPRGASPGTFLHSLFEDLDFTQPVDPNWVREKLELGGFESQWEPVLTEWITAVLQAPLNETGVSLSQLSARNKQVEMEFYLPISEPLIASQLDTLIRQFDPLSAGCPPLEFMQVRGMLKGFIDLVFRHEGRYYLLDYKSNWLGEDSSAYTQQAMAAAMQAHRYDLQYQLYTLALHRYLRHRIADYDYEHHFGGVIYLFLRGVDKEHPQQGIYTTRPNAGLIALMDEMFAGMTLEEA

RecBΔNucCD = RecBΔNucCD (Escherichia coli, UniProt P08394;P07648;P04993 1-929;1-1122;1-608); experiment: fluorescence competition
RecBCD = RecBCD (Escherichia coli, UniProt P08394;P07648;P04993 1-1180;1-1122;1-608); experiment: fluorescence competition

B1: RecB^ΔNuc (RecB with the nuclease domain, residues 930-1180, deleted) (domain or fragment)
chain: MSDVAETLDPLRLPLQGERLIEASAGTGKTFTIAALYLRLLLGLGGSAAFPRPLTVEELLVVTFTEAATAELRGRIRSNIHELRIACLRETTDNPLYERLLEEIDDKAQAAQWLLLAERQMDEAAVFTIHGFCQRMLNLNAFESGMLFEQQLIEDESLLRYQACADFWRRHCYPLPREIAQVVFETWKGPQALLRDINRYLQGEAPVIKAPPPDDETLASRHAQIVARIDTVKQQWRDAVGELDALIESSGIDRRKFNRSNQAKWIDKISAWAEEETNSYQLPESLEKFSQRFLEDRTKAGGETPRHPLFEAIDQLLAEPLSIRDLVITRALAEIRETVAREKRRRGELGFDDMLSRLDSALRSESGEVLAAAIRTRFPVAMIDEFQDTDPQQYRIFRRIWHHQPETALLLIGDPKQAIYAFRGADIFTYMKARSEVHAHYTLDTNWRSAPGMVNSVNKLFSQTDDAFMFREIPFIPVKSAGKNQALRFVFKGETQPAMKMWLMEGESCGVGDYQSTMAQVCAAQIRDWLQAGQRGEALLMNGDDARPVRASDISVLVRSRQEAAQVRDALTLLEIPSVYLSNRDSVFETLEAQEMLWLLQAVMTPERENTLRSALATSMMGLNALDIETLNNDEHAWDVVVEEFDGYRQIWRKRGVMPMLRALMSARNIAENLLATAGGERRLTDILHISELLQEAGTQLESEHALVRWLSQHILEPDSNASSQQMRLESDKHLVQIVTIHKSKGLEYPLVWLPFITNFRVQEQAFYHDRHSFEAVLDLNAAPESVDLAEAERLAEDLRLLYVALTRSVWHCSLGVAPLVRRRGDKKGDTDVHQSALGRLLQKGEPQDAAGLRTCIEALCDDDIAWQTAQTGDNQPWQVNDVSTAELNAKTLQRLPGDNWRVTSYSGLQQRGHGIAQDLMPRLDVDAA
- binding result (RecC): binds

B2: RecD (natural protein)
chain: MKLQKQLLEAVEHKQLRPLDVQFALTVAGDEHPAVTLAAALLSHDAGEGHVCLPLSRLENNEASHPLLATCVSEIGELQNWEECLLASQAVSRGDEPTPMILCGDRLYLNRMWCNERTVARFFNEVNHAIEVDEALLAQTLDKLFPVSDEINWQKVAAAVALTRRISVISGGPGTGKTTTVAKLLAALIQMADGERCRIRLAAPTGKAAARLTESLGKALRQLPLTDEQKKRIPEDASTLHRLLGAQPGSQRLRHHAGNPLHLDVLVVDEASMIDLPMMSRLIDALPDHARVIFLGDRDQLASVEAGAVLGDICAYANAGFTAERARQLSRLTGTHVPAGTGTEAASLRDSLCLLQKSYRFGSDSGIGQLAAAINRGDKTAVKTVFQQDFTDIEKRLLQSGEDYIAMLEEALAGYGRYLDLLQARAEPDLIIQAFNEYQLLCALREGPFGVAGLNERIEQFMQQKRKIHRHPHSRWYEGRPVMIARNDSALGLFNGDIGIALDRGQGTRVWFAMPDGNIKSVQPSRLPEHETTWAMTVHKSQGSEFDHAALILPSQRTPVVTRELVYTAVTRARRRLSLYADERILSAAIATRTERRSGLAALFSSRE
- binding result (RecC): binds

Binder: B3
- binding result (RecB): binds

B4: 3'-dT2 (dsDNA)
DNA 1: CCATGGCTCCTGAGCTAGCTGCAGTAGCCTAAAGGATGAAACTAGGATCTTATGCTCCAGTT
DNA 2: CTGGAGCATAAGATCCTAGTTTCATCCTTTAGGCTACTGCAGCTAGCTCAGGAGCCATGGTT
- Ka (RecBΔNucCD): 9.6e+07 M⁻¹
- Ka (RecBCD): 2.1e+07 M⁻¹

B5: 3'-dT4 (dsDNA)
DNA 1: CCATGGCTCCTGAGCTAGCTGCAGTAGCCTAAAGGATGAAACTAGGATCTTATGCTCCAGTTTT
DNA 2: CTGGAGCATAAGATCCTAGTTTCATCCTTTAGGCTACTGCAGCTAGCTCAGGAGCCATGGTTTT
- Ka (RecBΔNucCD): 3.3e+08 M⁻¹
- Ka (RecBCD): 4.7e+07 M⁻¹
